Measurements taken from patent US20260308258 (published 2026).
Where a chain is given by its changes, count along the chain named. Where two headings read alike, the source gives them in different places. Values belong to the binder of their own block, whether it stands above or below them.

Key:
[1] = molecular target: CD16a-F ECD (human); assay: ELISA
[2] = molecular target: CD16a-V ECD (human); assay: ELISA
[3] = molecular target: CD16a-F ECD (human); assay: ELISA, + 10 mg/ml hIgG
[4] = molecular target: T1, CD16b-NA1 ECD (human); assay: ELISA
T1 chain: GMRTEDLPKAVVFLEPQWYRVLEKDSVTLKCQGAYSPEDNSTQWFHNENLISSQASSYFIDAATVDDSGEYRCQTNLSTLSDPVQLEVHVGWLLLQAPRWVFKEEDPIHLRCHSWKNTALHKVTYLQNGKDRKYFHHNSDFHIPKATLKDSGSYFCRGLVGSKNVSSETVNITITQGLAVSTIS

[5] = molecular target: CD16a-F ECD-Fc (human); assay: ELISA
[6] = molecular target: CD16a-V ECD (human); assay: ELISA, + 10 mg/ml hIgG
[7] = molecular target: T2, CD16b-NA2 ECD (human); assay: ELISA
T2 chain: T1 chain with R20S, N49S, D66N, V90I

[8] = molecular target: CD16a-F ECD (human); assay: ELISA; remark: listed apart in the source
[9] = molecular target: T1, CD16b-NA1 ECD; assay: ELISA
[10] = molecular target: CD16a-V ECD (human); assay: ELISA; remark: listed apart in the source
[11] = molecular target: T3, Mouse FcgRIV (mouse, UniProt A0A0B4J1G0); assay: BLI, 30C
T3 chain: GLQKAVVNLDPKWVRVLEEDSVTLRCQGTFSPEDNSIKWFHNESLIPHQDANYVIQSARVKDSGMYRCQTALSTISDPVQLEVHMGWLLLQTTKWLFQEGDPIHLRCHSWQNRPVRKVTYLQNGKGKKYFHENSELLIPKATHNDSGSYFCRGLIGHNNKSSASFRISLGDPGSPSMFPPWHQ

[12] = molecular target: CD16a-F ECD deglycosylated (human); assay: ELISA
[13] = molecular target: T4, Cyno CD16a ECD (cynomolgus); assay: BLI, 30C
T4 chain: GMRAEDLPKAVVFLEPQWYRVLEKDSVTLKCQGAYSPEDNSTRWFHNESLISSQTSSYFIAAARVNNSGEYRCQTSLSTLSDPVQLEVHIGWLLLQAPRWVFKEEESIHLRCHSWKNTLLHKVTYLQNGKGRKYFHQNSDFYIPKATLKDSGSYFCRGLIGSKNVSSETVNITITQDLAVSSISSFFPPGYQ

[14] = molecular target: T5, CD16b on neutrophils (human, UniProt O75015); assay: FACS, neutrophils
T5 chain: T1 chain with R20S, D66N, V90I

[15] = molecular target: CD16a-F ECD (human); assay: BLI, 30C
[16] = molecular target: T2, CD16b-NA2 ECD; assay: ELISA
[17] = molecular target: CD16a-V ECD (human); assay: BLI, 30C
[18] = molecular target: CD16a-V ECD (human); assay: ELISA; remark: listed apart in the source
[19] = molecular target: T2, CD16b-NA2 ECD; assay: ELISA
[20] = molecular target: T1, CD16b-NA1 ECD; assay: BLI, 30C
[21] = molecular target: T6, CD16b-NA2 ECD deglycosylated (human); assay: ELISA
T6 chain: T1 chain with R20S, N49S, D66N, V90I

[22] = molecular target: T7, CD16b-NA1 ECD deglycosylated (human); assay: ELISA
T7 chain: T1 chain

[23] = molecular target: CD16a-F D82N (human); assay: FACS
[24] = molecular target: CD16a-V ECD deglycosylated (human); assay: ELISA
[25] = molecular target: CD16a-F ECD (human); assay: ELISA; remark: listed apart in the source
[26] = molecular target: T2, CD16b-NA2 ECD; assay: BLI, 30C

Chain of CD16a-F D82N (human) (chain, as listed by the source D82N): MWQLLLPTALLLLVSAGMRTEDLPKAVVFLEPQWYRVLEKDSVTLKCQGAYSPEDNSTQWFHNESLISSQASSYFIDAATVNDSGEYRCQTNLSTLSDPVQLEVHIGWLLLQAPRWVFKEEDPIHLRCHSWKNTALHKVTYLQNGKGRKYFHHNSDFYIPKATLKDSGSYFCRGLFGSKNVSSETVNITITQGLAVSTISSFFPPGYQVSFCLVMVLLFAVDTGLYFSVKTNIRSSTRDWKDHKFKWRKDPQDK

Kd [1]: 0.048 nM
Kd [2]: 0.051 nM
Kd [3]: 0.74 nM
Kd [4]: > 1000 nM
Kd [5]: 0.11 nM
Kd [6]: 0.53 nM
Kd [7]: 546 nM
B1: #3A2 IgG1 (antibody)
chain 1: QLQLQESGPGLVKPSETLSLTCTVSGGSIGRGDYYWGWIRQPPGKGLEWIGTIDYSGRTYYNPSLKSRVTISVDTSKNQFSLKLSSVTAADTAVYYCARAFPGEYFGVFDHWGQGTLVTVSS
chain 2: EIVLTQSPGTLSLSPGERATLSCRASQSVSSSYLAWYQQKPGQAPRLLIYDATSRATGIPDRFSGSGSGTDFTLTISRLEPEDFAVYYCQQYDSSSLITFGQGTKVEIK

Kd [1]: 0.14 nM
Kd [2]: 0.16 nM
Kd [3]: 0.67 nM
Kd [4]: 1300 nM
Kd [5]: 0.13 nM
Kd [6]: 0.61 nM
Kd [7]: 298 nM
B2: #6A2 IgG1 (antibody)
chain 1: B1 chain 1
chain 2: not shown

Kd [8]: 0.28 nM
Kd [9]: 73 nM
Kd [10]: 0.4 nM
binding result [11]: no binding
Kd [12]: 1 nM
binding result [13]: no binding
binding result [14]: no binding
Kd [15]: 18 nM
Kd [5]: 0.1 nM
Kd [16]: 239 nM
Kd [17]: 6.6 nM
Kd [18]: 0.85 nM
Kd [19]: ~200 nM
binding result [20]: no binding
Kd [21]: 1 nM
Kd [22]: 11.2 nM
binding result [23]: no binding
Kd [24]: 0.53 nM
Kd [25]: 0.98 nM
Kd [26]: 214 nM
B3: #55 IgG1 (antibody)
chain 1: EVQLLESGGGLVQPGGSLRLSCAASGFTFSNYAMSWVRQAPGKGLEWVSAISGGGSYTYYADSVKGRFTISRDNSKNTLYLQMNSLRAEDTAVYYCARTYLRRWYYFDYWGQGTLVTVSS
chain 2: DIQMTQSPSSLSASVGDRVTITCRASQTITSYLNWYQQKPGKAPKLLIYAASSLQSGVPSRFSGSGSGTDFTLTISSLQPEDFATYYCQQSYTSPVTFGQGTKVEIK
